Reference: US20060258842A1 (IQ THERAPEUTICS, published 2006)

B1: human monoclonal antibody IQNPA-1 (antibody, V domains shown)
VH: QVQLVQSGAEVKKPGASVKVSCKASGYTFTSNAIQWVRQAPGQRLEWVGWINGGDGNTKYSQKFQGRVTISRDISASTAYMELSSLRSEDTAVYYCARHRLQRGGFDPWGQGTLVTVSS
VL: EIVLTQSPGTLSLSPGERATLSCRASQSVSYSSLAWYQQKPGQAPSLLIYGASSRATGIPDRFSGSGSGPDFTLTISRLEPEDFAVYYCQHYGNSPYTFGQGTKLEIKR
B2: human monoclonal antibody IQNPA-2 (antibody, V domains shown)
VH: QVQLVQSGAEVKKPGASVKVSCKASGYTFTSNAIQWVRQAPGQRLEWVGWINGGDGNTKYSQKFQGRVTISRDISASTAYMELSSLRSEDTAVYYCARHRLQRGGFDPWGQGTLVTVSS
VL: EIVLTQSPGTLSLSPGERATLSCRASQSVSYSSLAWYQQKPGQAPSLLIYGASSRATGIPDRFSGSGSGPDFTLTISRLEPEDFAVYYCQHYGNSPYTFGQGTKLEIKR

Legend:
[1] = biological target: Bacillus anthracis Protective Antigen (Bacillus anthracis, UniProt P13423 30-764); assay: SPR (BIAcore 3000), PA amine-coupled to CM5 chip, antibody as analyte
[2] = biological target: T1, GST fusion of protective antigen domain 1 (Bacillus anthracis, UniProt P13423 30-287); assay: ELISA, plate coated with GST-PA domain protein, goat anti-human IgG HRP
T1 construct: domain: 1

[3] = biological target: T2, GST fusion of protective antigen domains 1 to 2 (Bacillus anthracis, UniProt P13423 30-516); assay: as above
T2 construct: domain: 1 to 2

[4] = biological target: T3, GST fusion of protective antigen domains 1 to 3 (Bacillus anthracis, UniProt P13423 30-624); assay: as above
T3 construct: domain: 1 to 3

[5] = biological target: T4, GST fusion of protective antigen domains 1 to 4 (Bacillus anthracis, UniProt P13423 30-764); assay: as above
T4 construct: domain: 1 to 4

[6] = biological target: T5, GST fusion of protective antigen domains 3 to 4 (Bacillus anthracis, UniProt P13423 517-764); assay: as above
T5 construct: domain: 3 to 4

[7] = biological target: T6, GST fusion of protective antigen domain 4 (Bacillus anthracis, UniProt P13423 625-764); assay: as above
T6 construct: domain: 4
T6 sequence (P13423 625-764 limits assumed): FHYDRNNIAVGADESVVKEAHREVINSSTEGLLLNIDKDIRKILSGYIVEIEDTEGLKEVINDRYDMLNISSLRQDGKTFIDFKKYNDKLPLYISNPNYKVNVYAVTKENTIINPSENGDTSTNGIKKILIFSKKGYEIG

Sequence of Bacillus anthracis Protective Antigen (P13423 30-764 limits assumed): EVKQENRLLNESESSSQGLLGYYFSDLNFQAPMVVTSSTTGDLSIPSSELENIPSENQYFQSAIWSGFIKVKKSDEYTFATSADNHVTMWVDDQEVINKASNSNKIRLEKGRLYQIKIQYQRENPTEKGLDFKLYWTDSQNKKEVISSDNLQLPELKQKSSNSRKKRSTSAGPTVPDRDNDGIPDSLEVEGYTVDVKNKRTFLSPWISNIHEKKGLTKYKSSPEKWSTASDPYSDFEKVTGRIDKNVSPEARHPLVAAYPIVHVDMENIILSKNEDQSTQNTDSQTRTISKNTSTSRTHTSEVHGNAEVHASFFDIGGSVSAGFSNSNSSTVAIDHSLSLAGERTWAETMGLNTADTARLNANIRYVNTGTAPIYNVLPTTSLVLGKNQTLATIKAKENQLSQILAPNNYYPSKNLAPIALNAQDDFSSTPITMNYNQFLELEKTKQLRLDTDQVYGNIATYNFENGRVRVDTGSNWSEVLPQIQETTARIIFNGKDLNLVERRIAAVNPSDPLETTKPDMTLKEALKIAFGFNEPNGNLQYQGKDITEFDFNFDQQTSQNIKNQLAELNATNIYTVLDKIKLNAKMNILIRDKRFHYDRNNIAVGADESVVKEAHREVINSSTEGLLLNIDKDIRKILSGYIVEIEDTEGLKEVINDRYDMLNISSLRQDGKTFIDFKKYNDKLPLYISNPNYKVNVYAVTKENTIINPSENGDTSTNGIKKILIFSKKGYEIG
T3 sequence (P13423 30-624 limits assumed): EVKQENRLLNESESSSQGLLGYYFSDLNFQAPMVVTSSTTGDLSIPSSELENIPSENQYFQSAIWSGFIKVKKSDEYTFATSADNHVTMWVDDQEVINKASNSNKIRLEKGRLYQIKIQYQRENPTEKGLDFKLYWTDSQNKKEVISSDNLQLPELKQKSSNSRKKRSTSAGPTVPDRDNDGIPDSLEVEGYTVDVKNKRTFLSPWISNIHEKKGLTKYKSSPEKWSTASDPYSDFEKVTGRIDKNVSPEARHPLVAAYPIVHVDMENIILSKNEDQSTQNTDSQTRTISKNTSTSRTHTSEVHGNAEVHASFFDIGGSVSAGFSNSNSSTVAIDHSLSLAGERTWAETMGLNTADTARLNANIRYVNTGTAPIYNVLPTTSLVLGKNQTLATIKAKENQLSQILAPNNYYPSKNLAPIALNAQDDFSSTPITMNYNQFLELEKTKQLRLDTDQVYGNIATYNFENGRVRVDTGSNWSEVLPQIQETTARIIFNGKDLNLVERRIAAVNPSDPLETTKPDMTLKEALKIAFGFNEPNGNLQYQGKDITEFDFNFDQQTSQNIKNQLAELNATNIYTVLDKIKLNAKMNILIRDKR
T5 sequence (P13423 517-764 limits assumed): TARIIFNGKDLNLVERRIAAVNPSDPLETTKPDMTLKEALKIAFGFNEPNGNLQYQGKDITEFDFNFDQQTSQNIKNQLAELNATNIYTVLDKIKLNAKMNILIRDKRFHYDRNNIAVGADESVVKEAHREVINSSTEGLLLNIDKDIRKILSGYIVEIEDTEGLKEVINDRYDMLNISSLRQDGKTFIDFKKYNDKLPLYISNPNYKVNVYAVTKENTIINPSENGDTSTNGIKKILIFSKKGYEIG
T1 sequence (P13423 30-287 limits assumed): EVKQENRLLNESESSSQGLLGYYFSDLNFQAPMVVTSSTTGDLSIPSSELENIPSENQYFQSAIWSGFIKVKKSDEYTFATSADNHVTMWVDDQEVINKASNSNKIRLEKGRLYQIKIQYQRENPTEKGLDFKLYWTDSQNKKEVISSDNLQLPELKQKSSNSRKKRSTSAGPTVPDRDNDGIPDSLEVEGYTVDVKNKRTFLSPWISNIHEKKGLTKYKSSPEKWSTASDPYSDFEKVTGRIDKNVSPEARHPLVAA
T4 sequence (P13423 30-764 limits assumed): as the sequence (P13423 30-764 limits assumed) above
T2 sequence (P13423 30-516 limits assumed): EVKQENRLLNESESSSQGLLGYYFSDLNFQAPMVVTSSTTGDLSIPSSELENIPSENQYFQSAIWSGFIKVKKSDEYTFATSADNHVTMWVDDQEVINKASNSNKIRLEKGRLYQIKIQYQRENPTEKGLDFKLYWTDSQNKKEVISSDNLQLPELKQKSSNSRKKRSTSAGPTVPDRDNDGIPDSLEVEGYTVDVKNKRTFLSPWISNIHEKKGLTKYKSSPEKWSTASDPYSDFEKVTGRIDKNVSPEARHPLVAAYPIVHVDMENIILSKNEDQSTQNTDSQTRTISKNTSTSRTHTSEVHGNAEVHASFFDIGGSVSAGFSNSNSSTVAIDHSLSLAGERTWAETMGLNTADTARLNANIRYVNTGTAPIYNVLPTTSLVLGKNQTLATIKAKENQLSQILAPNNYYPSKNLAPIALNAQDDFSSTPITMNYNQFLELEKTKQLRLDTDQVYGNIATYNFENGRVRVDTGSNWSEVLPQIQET

| Binder | Ka [1] [M⁻¹] | Kd [1] [nM] | koff [1] [s⁻¹] | kon [1] [M⁻¹ s⁻¹] | End point titre [2] | End point titre [3] | End point titre [4] | End point titre [5] | End point titre [6] | End point titre [7] |
| --- | --- | --- | --- | --- | --- | --- | --- | --- | --- | --- |
| B1 | 8.31e+09 | 0.12 | 1.93e-05 | 160000 | < 100 | < 100 | < 100 | 256000 | 256000 | 256000 |
| B2 | 9.86e+09 | 0.101 | 1.81e-05 | 178000 | < 100 | < 100 | < 100 | 128000 | 256000 | 128000 |
